Measured values taken from US20240294570.

Experiments:
[1] = test system: T1, L-phosphopentapeptide 5, NBD-βA-LLLLpY
T1 sequence: XLLLLX

[2] = test system: T2, phosphopeptide 3, NBD-βA-LLLpY
T2 sequence: XLLLX

[3] = test system: T3, phosphopentapeptide 9, NBD-βA-llllpY
T3 sequence: LLLLY

[4] = test system: T4, phosphopentapeptide 7, NBD-βA-LLpYLL
T4 sequence: XLLXLL

With “Alkaline phosphatase (Biomatik, Cat. No. A1130)” the “conversion of 5 to 6 after 1 hour, 0.1 U/mL ALP” value [1] was “After 1 hour of incubation, 32.7% of 5 turns into 6”, the “conversion of 5 to 6 after 2 hours, 0.1 U/mL ALP” value [1] was “After 2 hours of incubation of 5 with 0.1 U/mL of ALP, 49.6% of 5 becomes 6” and the “dephosphorylation ratio after 5 hours, 400 µM of 5, 0.5 U/mL ALP” value [1] was “After 5 hours of incubation, 400 µM of 5 results in a dephosphorylation ratio of 93.8%”. The “final dephosphorylation ratio, 5 (400 µM), 0.1 U/mL ALP” value [1] was “the final dephosphorylation ratio is 69.1%”, the “fraction of 5 hydrolyzed at 40 minutes, 0.1 U/mL ALP” value [1] was “At the time point 40 minutes, about 24% of 5 is hydrolyzed by ALP” and the “dephosphorylation catalyzed by ALP” value [2] was 3 is able to turn into 4 upon dephosphorylation catalyzed by ALP. The “conversion ratio of 9 to 10 after 5 hours, 0.5 U/mL ALP” value [3] was “After 5 hours of incubation, the conversion ratio of 9 to 10 is 93.3%” and the “conversion ratio of 7 to 8 after 5 h, 0.5 U/mL ALP” value [4] was “After 5 h of incubation, the conversion ratio of 7 to 8 is 61.5%”.
